Where a chain is given by its changes, count along the chain named.
T1: human 5T4 on the cell surface (human, UniProt Q13641 32-420)
T1 construct: whole, on cells; also called h5T4; TPBG
T1 sequence (looked up): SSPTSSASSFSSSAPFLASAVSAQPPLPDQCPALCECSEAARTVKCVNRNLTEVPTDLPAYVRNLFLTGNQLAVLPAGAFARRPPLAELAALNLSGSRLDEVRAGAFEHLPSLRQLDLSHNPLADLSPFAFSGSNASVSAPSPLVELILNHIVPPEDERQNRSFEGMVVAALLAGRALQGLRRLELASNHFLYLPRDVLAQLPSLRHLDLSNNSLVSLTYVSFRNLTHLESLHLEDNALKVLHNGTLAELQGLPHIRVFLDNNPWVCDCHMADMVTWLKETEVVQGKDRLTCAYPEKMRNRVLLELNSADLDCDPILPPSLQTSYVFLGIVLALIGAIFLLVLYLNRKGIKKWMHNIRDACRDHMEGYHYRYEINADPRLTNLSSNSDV

B1: AB1879-TriNKET® (bispecific antibody, human IgG1, kappa)
chain: DIQLTQSPSSLSASVGDRVTITCRASQGVSTSTYTYMHWFQQKPGKAPKLLIKFASNLESGVPSRFSGSGSGTDFTLTISSLQPEDFATYYCQHSWEIPWTFGCGTKVEIKGGGGSGGGGSGGGGSGGGGSEVQLVESGGGLVQPGGSLRLSCAASGFTFSDYGMHWVRQAPGKCLEWVSYISSGSSTFYYADTVKGRFTISRDNAKNSLYLQMNSLRAEDTAVYYCGSSQSYYRGTMDYWGQGTTVTVSSGSDKTHTCPPCPAPELLGGPSVFLFPPKPKDTLMISRTPEVTCVVVDVSHEDPEVKFNWYVDGVEVHNAKTKPREEQYNSTYRVVSVLTVLHQDWLNGKEYKCKVSNKALPAPIEKTISKAKGQPREPRVYTLPPCRDELTKNQVSLTCLVKGFYPSDIAVEWESNGQPENNYKTTPPVLVSDGSFTLYSKLTVDKSRWQQGNVFSCSVMHEALHNHYTQKSLSLSPG
heavy: EVQLVESGGGLVKPGGSLRLSCAASGFTFSSYSMNWVRQAPGKGLEWVSSISSSSSYIYYADSVKGRFTISRDNAKNSLYLQMNSLRAEDTAVYYCARGAPIGAAAGWFDPWGQGTLVTVSSASTKGPSVFPLAPSSKSTSGGTAALGCLVKDYFPEPVTVSWNSGALTSGVHTFPAVLQSSGLYSLSSVVTVPSSSLGTQTYICNVNHKPSNTKVDKKVEPKSCDKTHTCPPCPAPELLGGPSVFLFPPKPKDTLMISRTPEVTCVVVDVSHEDPEVKFNWYVDGVEVHNAKTKPREEQYNSTYRVVSVLTVLHQDWLNGKEYKCKVSNKALPAPIEKTISKAKGQPREPQVCTLPPSRDELTENQVSLTCLVKGFYPSDIAVEWESNGQPENNYKTTPPVLDSDGSFFLYSWLTVDKSRWQQGNVFSCSVMHEALHNHYTQKSLSLSPG
light: DIQMTQSPSSVSASVGDRVTITCRASQGISSWLAWYQQKPGKAPKLLIYAASSLQSGVPSRFSGSGSGTDFTLTISSLQPEDFATYYCQQGVSFPRTFGGGTKVEIKRTVAAPSVFIFPPSDEQLKSGTASVVCLLNNFYPREAKVQWKVDNALQSGNSQESVTEQDSKDSTYSLSSTLTLSKADYEKHKVYACEVTHQGLSSPVTKSFNRGEC
notes: F3′ format; also called AB1879-VL-VH TriNKET®; 11F09-IGHV3-48*01 BM1-YB
B2: AB1880-TriNKET® (bispecific antibody, human IgG1, kappa)
chain: B1 chain with Q144K, A154E, V179L, S180A
heavy: B1 heavy
light: B1 light
notes: F3′ format; also called AB1880-VL-VH TriNKET®; 11F09-IGHV3-21*05 BM2-YB
B3: AB1883-TriNKET® (bispecific antibody, human IgG1, kappa)
chain: B1 chain with E132Q, Q144K, V179L, S180A
heavy: B1 heavy
light: B1 light
notes: F3′ format; also called AB1883-VL-VH TriNKET®; 11F09-IGHV3-11*01 BM2-YB
B4: AB1888-TriNKET® (bispecific antibody, human IgG1, kappa)
chain: B1 chain with Q144K
heavy: B1 heavy
light: B1 light
notes: F3′ format; also called AB1888-VL-VH TriNKET®; 11F09-IGHV3-21*05 BM1-YB
B5: AB1889-TriNKET® (bispecific antibody, human IgG1, kappa)
chain: B1 chain with V179L, S180A
heavy: B1 heavy
light: B1 light
notes: F3′ format; also called AB1889-VL-VH TriNKET®; 11F09-IGHV3-48*01 BM2-YB
B6: AB1891-TriNKET® (bispecific antibody, human IgG1, kappa)
chain: B1 chain with Q144K, V168I
heavy: B1 heavy
light: B1 light
notes: F3′ format; also called AB1891-VL-VH TriNKET®; 11F09-IGHV3-11*01 BM1-YB
B7: AB1890-TriNKET® (bispecific antibody, human IgG1, kappa)
chain: B1 chain with V136L, A206S, S209T
heavy: B1 heavy
light: B1 light
notes: F3′ format; also called AB1890-VL-VH TriNKET®; 11F09-IGHV3-23*03 BM1-YB
B8: AB1893-TriNKET® (bispecific antibody, human IgG1, kappa)
chain: B1 chain with V136L, V179L, S180A, S209T
heavy: B1 heavy
light: B1 light
notes: F3′ format; also called AB1893-VL-VH TriNKET®; 11F09-IGHV3-23*03 BM2-YB

Biological target: T1, human 5T4 on the cell surface
Assay: cell binding assay on 5T4-expressing tumor cells (cell line not given)

Row | Binder | EC50 [nM] | Max Fold Over Background (FOB) [fold over background]
1 | B1 | 9.18 | 62.9
2 | B2 | 21.7 | 48.5
3 | B3 | 6.02 | 69.4
4 | B4 | 18.5 | 22.1
5 | B5 | 20.7 | 11.7
6 | B6 | 50.5 | 40.1
7 | B7 | 5.62 | 65.9
8 | B8 | 15.9 | 70.8
